What was measured:
Type in all cases: cell-based, Pseudomonas saitens KCTC 13107BP
[1] = system: Ptac-cm^R SF1 strain; test: MIC test of chloramphenicol on recombinant SF1 strain (Ptac promoter); conditions: Pseudomonas, 48 h, read-out: MIC of Chloramphenicol
Method: (§1) A pB-P4381 vector comprising cm^R gene (cat) downstream of the promoter of highly expressed gene Gene_4381, which was selected based on RNA-seq data, was constructed as described in (2). This vector was then introduced into SF1 strain by electroporation. As control groups, a pSF-EX1 vector and a pBBR-122 vector were introduced into separate SF1 strains in the same manner as described above.
(§2) Each of the recombinant SF1 strains was cultured in separate wells of a microplate containing LB medium containing predetermined chloramphenicol, and growth thereof was examined to confirm minimal inhibitory concentrations (MICs). Culturing was performed at 30° C. for 2 days in an LB medium supplemented with 400 μg/ml of chloramphenicol by ½ dilution at each concentration.

[2] = system: P4381-cm^R SF1 strain; test: MIC test of chloramphenicol on recombinant SF1 strain (P4381 promoter)
Method: as §1, §2

[3] = system: Pcat-cm^R SF1 strain; test: MIC test of chloramphenicol on recombinant SF1 strain (Pcat promoter); conditions: Pseudomonas, 48 h, LB medium, 30° C., 2 days
Method: as §1, §2

[4] = system: cat protein; test: SDS-PAGE analysis of cat protein expression in cell lysates; conditions: SDS-PAGE of soluble proteins, SF1 strain
Excerpt: Pcat-cm^R, Ptac-cm^R, and P4381-cm^R cells cultured in (3.1) were lysed to obtain cell lysates, from which soluble proteins were isolated using a BuGBusTER® Protein Extraction Reagent, respectively. The isolated proteins were subjected to SDS-PAGE to examine cat expression.
In FIG. 5, the arrow indicates the position of cat protein.

[5] = system: cat gene; test: cat mRNA level by RT-PCR; conditions: SF1 strain
Excerpt: Pcat-cm^R, Ptac-cm^R, and P4381-cm^R cells cultured in (3.1) were lysed to obtain cell lysates, which were then centrifuged to obtain supernatants, respectively. Each supernatant was subjected to RT-PCR using a set of primers of SEQ ID NOS: 13 and 14.
In FIG. 4, the vertical axis represents a ratio when a cycle threshold (CT) value of Pcat promoter is regarded as 1, and Pcat, Ptac, and P4381 on the horizontal axis represent SF1 strains introduced with […], respectively.

## O=C(N[C@H](CO)[C@H](O)c1ccc([N+](=O)[O-])cc1)C(Cl)Cl [Chloramphenicol, chloramphenicol]
[1]
  MIC: > 100 µg/mL
[2]; Pseudomonas, 48 h, strain P4381-cm^R, LB medium, 30° C., 2 days
  MIC: > 200 µg/mL
[3]
  MIC: > 100 µg/mL

B1: P4381: promoter polynucleotide comprising SEQ ID NO: 1 isolated from Gene_4381 of Pseudomonas saitens KCTC 13107BP (nucleic acid)
DNA: TAGACCTGACTGCAGAGCGAATTCGGGCCTGATTCAGGGCAAAAATGGCCAGAAACCATTTTTCGCGTAAAAAATATTCATTCGCGAGTGCTTTTTTTCCAAGCCCGTTTAACCCTCAAGCCCCGGAAACCGGGGCTTCGAGCATTTCAGGCAGCAGACCGAAGCTAACATCGCAGCAAACTGTGGTTCAGGGGGGTTCCAAAGCGCACATTTCGACTATGATAGCTCGGTGTGCCCAGTTGGCCTGAGCAGCACAGTACTACTGAAAATATAAGTTTCTTGGAGATACACC
modifications: Synthetic Pseudomonas saitens KCTC 13107BP
[4]
  cat protein expression level compared with Pcat and Ptac: significantly higher
[5]; compared with Pcat promoter
  cat mRNA level relative to Pcat: 158 times
[5]; compared with Ptac promoter
  cat mRNA level relative to Ptac: 32 times
[2]; chloramphenicol MIC, SF1 strain
  MIC relative to that of existing Pcat and Ptac: twice or higher

— US20200024598A1, “ISOLATED POLY[…] REGION, HOST CELL COMPRISING THE SAME, AND METHOD OF […] GENE IN THE HOST CELL” (priority 2018, published 2020)
